The values that follow come from PMC12003327.

Assay [1] addresses recombinant human integrin alphaV beta3 (αvβ3) (human) (UniProt P06756).
Assay [2] shares this target. The source holds these as a separate data set.
Assay [3] has the same target. This is another data set of the same source.

In the case of “recombinant trimeric SARS-CoV-2 Omicron BA.1 spike protein (from UniProt P0DTC2 14-1273) (natural protein)”, in assay [1], the inhibition of FAK activation by Omicron BA.1 in HL-mECs pretreated with Heparinase III was found to be 48%, the inhibition of FAK activation by Omicron BA.1 in HL-mECs pretreated with mAb anti-αvβ3 was 54%, the inhibition of FAK activation by Omicron BA.1 in HL-mECs pretreated with sodium chlorate stood at 48% and the inhibition of pSrc activation by Omicron BA.1 in HL-mECs pretreated with Heparinase III was 66%. In addition, in assay [1], the inhibition of pSrc activation by Omicron BA.1 in HL-mECs pretreated with mAb anti-αvβ3 is 56% and the inhibition of pSrc activation by Omicron BA.1 in HL-mECs pretreated with sodium chlorate came to 65%. Moreover, in assay [2], the ERK phosphorylation in HL-mECs after infection with authentic Omicron BA.1 (western blot, against not infected cells) (fold increase) stood at 3.5; the inhibition of Omicron BA.1-induced ERK activation in HL-mECs pretreated with Heparinase III was 56%; the inhibition of Omicron BA.1-induced ERK activation in HL-mECs pretreated with mAb anti-αvβ3 turned out to be 44%; the inhibition of Omicron BA.1-induced ERK phosphorylation in HL-mECs pretreated with sodium chlorate was 53%. Moreover, in assay [3], the phosphorylation of FAK in HL-mECs 1 h after infection with authentic Omicron BA.1 (western blot, against not infected cells) (fold increase) was 2.3 and the phosphorylation of Src in HL-mECs 1 h after infection with authentic Omicron BA.1 (western blot, against not infected cells) (fold increase) came to 1.8.
